B1: Emerin (Homo sapiens), P50402 (parent)
chain: MDNYADLSDTELTTLLRRYNIPHGPVVGSTRRLYEKKIFEYETQRRRLSPPSSSAASSYSFSDLNSTRGDADMYDLPKKEDALLYQSKGYNDDYYEESYFTTRTYGEPESAGPSRAVRQSVTSFPDADAFHHQVHDDDLLSSSEEECKDRERPMYGRDSAYQSITHYRPVSASRSSLDLSYYPTSSSTSFMSSSSSSSSWLTRRAIRPENRAPGAGLGQDRQVPLWGQLLLFLVFVIVLFFIYHFMQAEEGNPF
B2: Mothers against decapentaplegic homolog 3 (Homo sapiens), P84022 (parent)
chain: MSSILPFTPPIVKRLLGWKKGEQNGQEEKWCEKAVKSLVKKLKKTGQLDELEKAITTQNVNTKCITIPRSLDGRLQVSHRKGLPHVIYCRLWRWPDLHSHHELRAMELCEFAFNMKKDEVCVNPYHYQRVETPVLPPVLVPRHTEIPAEFPPLDDYSHSIPENTNFPAGIEPQSNIPETPPPGYLSEDGETSDHQMNHSMDAGSPNLSPNPMSPAHNNLDLQPVTYCEPAFWCSISYYELNQRVGETFHASQPSMTVDGFTDPSNSERFCLGLLSNVNRNAAVELTRRHIGRGVRLYYIGGEVFAECLSDSAIFVQSPNCNQRYGWHPATVCKIPPGCNLKIFNNQEFAALLAQSVNQGFEAVYQLTRMCTIRMSFVKGWGAEYRRQTVTSTPCWIELHLNGPLQWLDKVLTQMGSPSIRCSSVS
partner: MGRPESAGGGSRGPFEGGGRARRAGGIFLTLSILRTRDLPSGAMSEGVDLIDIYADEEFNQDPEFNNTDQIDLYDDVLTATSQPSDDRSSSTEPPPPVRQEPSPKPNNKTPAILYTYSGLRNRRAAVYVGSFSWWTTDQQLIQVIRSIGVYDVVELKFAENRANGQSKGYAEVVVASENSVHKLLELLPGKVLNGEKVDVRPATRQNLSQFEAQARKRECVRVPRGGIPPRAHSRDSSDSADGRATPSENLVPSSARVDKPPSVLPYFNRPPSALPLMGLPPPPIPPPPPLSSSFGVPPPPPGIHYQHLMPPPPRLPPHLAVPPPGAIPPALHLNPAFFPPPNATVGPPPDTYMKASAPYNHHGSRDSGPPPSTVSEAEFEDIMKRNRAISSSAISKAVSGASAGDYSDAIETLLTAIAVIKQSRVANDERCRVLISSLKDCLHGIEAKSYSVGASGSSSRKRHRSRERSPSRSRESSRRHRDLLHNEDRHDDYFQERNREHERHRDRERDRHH
B3: N-chimaerin (Homo sapiens), P15882 (parent)
chain: MALTLFDTDEYRPPVWKSYLYQLQQEAPHPRRITCTCEVENRPKYYGREFHGMISREAADQLLIVAEGSYLIRESQRQPGTYTLALRFGSQTRNFRLYYDGKHFVGEKRFESIHDLVTDGLITLYIETKAAEYIAKMTINPIYEHVGYTTLNREPAYKKHMPVLKETHDERDSTGQDGVSEKRLTSLVRRATLKENEQIPKYEKIHNFKVHTFRGPHWCEYCANFMWGLIAQGVKCADCGLNVHKQCSKMVPNDCKPDLKHVKKVYSCDLTTLVKAHTTKRPMVVDMCIREIESRGLNSEGLYRVSGFSDLIEDVKMAFDRDGEKADISVNMYEDINIITGALKLYFRDLPIPLITYDAYPKFIESAKIMDPDEQLETLHEALKLLPPAHCETLRYLMAHLKRVTLHEKENLMNAENLGIVFGPTLMRSPELDAMAALNDIRYQRLVVELLIKNEDILF
B4: Low density lipoprotein receptor adapter protein 1 (Homo sapiens), Q5SW96 (parent)
chain: MDALKSAGRALIRSPSLAKQSWGGGGRHRKLPENWTDTRETLLEGMLFSLKYLGMTLVEQPKGEELSAAAIKRIVATAKASGKKLQKVTLKVSPRGIILTDNLTNQLIENVSIYRISYCTADKMHDKVFAYIAQSQHNQSLECHAFLCTKRKMAQAVTLTVAQAFKVAFEFWQVSKEEKEKRDKASQEGGDVLGARQDCTPSLKSLVATGNLLDLEETAKAPLSTVSANTTNMDEVPRPQALSGSSVVWELDDGLDEAFSRLAQSRTNPQVLDTGLTAQDMHYAQCLSPVDWDKPDSSGTEQDDLFSF
partner: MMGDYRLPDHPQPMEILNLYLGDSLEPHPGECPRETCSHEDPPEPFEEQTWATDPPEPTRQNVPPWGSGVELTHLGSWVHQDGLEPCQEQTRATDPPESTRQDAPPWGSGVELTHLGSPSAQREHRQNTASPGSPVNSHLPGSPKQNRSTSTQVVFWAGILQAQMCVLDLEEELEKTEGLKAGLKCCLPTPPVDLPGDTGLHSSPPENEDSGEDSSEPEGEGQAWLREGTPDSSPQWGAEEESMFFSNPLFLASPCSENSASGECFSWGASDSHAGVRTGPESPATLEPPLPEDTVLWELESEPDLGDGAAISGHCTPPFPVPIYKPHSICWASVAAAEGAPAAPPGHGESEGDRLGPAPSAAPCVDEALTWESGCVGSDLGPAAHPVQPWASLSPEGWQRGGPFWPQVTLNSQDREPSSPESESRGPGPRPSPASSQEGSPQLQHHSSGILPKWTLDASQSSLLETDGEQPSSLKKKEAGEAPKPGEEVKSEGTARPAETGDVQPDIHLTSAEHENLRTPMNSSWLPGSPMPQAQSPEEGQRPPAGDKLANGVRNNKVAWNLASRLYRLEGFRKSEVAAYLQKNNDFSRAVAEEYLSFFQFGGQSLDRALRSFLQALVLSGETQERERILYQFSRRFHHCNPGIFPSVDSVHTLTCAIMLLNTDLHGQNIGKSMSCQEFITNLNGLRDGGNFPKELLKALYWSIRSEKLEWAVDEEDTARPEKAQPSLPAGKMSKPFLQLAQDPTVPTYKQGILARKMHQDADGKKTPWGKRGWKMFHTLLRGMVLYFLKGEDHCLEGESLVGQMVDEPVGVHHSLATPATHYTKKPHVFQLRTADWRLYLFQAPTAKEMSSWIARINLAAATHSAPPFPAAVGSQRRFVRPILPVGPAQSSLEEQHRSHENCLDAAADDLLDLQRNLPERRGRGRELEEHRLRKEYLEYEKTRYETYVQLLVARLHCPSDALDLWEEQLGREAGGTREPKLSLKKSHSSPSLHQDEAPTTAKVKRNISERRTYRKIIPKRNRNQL
B5: Ribose-phosphate pyrophosphokinase 1 (Homo sapiens), P60891 (parent)
chain: MPNIKIFSGSSHQDLSQKIADRLGLELGKVVTKKFSNQETCVEIGESVRGEDVYIVQSGCGEINDNLMELLIMINACKIASASRVTAVIPCFPYARQDKKDKSRAPISAKLVANMLSVAGADHIITMDLHASQIQGFFDIPVDNLYAEPAVLKWIRENISEWRNCTIVSPDAGGAKRVTSIADRLNVDFALIHKERKKANEVDRMVLVGDVKDRVAILVDDMADTCGTICHAADKLLSAGATRVYAILTHGIFSGPAISRINNACFEAVVVTNTIPQEDKMKHCSKIQVIDISMILAEAIRRTHNGESVSYLFSHVPL
partner: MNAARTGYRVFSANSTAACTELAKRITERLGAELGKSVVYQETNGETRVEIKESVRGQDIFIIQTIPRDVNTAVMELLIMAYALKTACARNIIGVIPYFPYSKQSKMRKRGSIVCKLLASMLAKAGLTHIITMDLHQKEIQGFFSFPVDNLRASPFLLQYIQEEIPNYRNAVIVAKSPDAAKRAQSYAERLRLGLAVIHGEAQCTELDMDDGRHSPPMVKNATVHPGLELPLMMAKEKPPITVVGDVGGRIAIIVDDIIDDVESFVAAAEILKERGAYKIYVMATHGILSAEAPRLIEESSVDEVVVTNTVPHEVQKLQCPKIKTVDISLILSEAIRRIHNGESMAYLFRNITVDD
B6: Glycogen phosphorylase, liver form (Homo sapiens), P06737 (parent)
chain: MAKPLTDQEKRRQISIRGIVGVENVAELKKSFNRHLHFTLVKDRNVATTRDYYFALAHTVRDHLVGRWIRTQQHYYDKCPKRVYYLSLEFYMGRTLQNTMINLGLQNACDEAIYQLGLDIEELEEIEEDAGLGNGGLGRLAACFLDSMATLGLAAYGYGIRYEYGIFNQKIRDGWQVEEADDWLRYGNPWEKSRPEFMLPVHFYGKVEHTNTGTKWIDTQVVLALPYDTPVPGYMNNTVNTMRLWSARAPNDFNLRDFNVGDYIQAVLDRNLAENISRVLYPNDNFFEGKELRLKQEYFVVAATLQDIIRRFKASKFGSTRGAGTVFDAFPDQVAIQLNDTHPALAIPELMRIFVDIEKLPWSKAWELTQKTFAYTNHTVLPEALERWPVDLVEKLLPRHLEIIYEINQKHLDRIVALFPKDVDRLRRMSLIEEEGSKRINMAHLCIVGSHAVNGVAKIHSDIVKTKVFKDFSELEPDKFQNKTNGITPRRWLLLCNPGLAELIAEKIGEDYVKDLSQLTKLHSFLGDDVFLRELAKVKQENKLKFSQFLETEYKVKINPSSMFDVQVKRIHEYKRQLLNCLHVITMYNRIKKDPKKLFVPRTVIIGGKAAPGYHMAKMIIKLITSVADVVNNDPMVGSKLKVIFLENYRVSLAEKVIPATDLSEQISTAGTEASGTGNMKFMLNGALTIGTMDGANVEMAEEAGEENLFIFGMRIDDVAALDKKGYEAKEYYEALPELKLVIDQIDNGFFSPKQPDLFKDIINMLFYHDRFKVFADYEAYVKCQDKVSQLYMNPKAWNTMVLKNIAASGKFSSDRTIKEYAQNIWNVEPSDLKISLSNESNKVNGN
partner: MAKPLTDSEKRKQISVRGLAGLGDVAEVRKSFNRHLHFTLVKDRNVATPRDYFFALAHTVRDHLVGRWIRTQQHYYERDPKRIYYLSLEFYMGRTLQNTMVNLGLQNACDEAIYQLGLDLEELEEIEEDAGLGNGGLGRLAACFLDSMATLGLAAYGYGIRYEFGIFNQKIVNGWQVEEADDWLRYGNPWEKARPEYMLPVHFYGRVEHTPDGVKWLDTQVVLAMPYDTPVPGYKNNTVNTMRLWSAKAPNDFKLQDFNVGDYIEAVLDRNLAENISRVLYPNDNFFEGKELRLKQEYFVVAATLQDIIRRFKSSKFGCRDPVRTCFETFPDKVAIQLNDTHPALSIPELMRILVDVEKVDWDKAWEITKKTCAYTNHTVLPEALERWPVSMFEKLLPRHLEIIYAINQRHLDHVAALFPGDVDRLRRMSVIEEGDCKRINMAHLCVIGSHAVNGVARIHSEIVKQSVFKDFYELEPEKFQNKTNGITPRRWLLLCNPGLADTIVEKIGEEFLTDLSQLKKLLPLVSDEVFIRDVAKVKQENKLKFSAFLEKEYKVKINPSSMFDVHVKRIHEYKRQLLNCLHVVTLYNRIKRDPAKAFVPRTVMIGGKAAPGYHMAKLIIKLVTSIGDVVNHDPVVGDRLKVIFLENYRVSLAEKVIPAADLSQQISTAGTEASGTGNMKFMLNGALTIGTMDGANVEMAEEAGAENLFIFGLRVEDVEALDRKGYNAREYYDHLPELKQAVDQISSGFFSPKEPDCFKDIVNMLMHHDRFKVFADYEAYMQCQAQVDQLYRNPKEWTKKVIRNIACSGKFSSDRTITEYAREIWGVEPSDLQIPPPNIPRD

Variants of: B1
Settings: with vapb_human VAPB

effect of a mutation on the interaction | Variant
with no effect | P183H
with no effect | P183T
with no effect | S54F

Variants of: B1
Settings: with tri42_human TRIM42, Q8IWZ5
tri42_human TRIM42, Q8IWZ5, sequence (Q8IWZ5 whole entry): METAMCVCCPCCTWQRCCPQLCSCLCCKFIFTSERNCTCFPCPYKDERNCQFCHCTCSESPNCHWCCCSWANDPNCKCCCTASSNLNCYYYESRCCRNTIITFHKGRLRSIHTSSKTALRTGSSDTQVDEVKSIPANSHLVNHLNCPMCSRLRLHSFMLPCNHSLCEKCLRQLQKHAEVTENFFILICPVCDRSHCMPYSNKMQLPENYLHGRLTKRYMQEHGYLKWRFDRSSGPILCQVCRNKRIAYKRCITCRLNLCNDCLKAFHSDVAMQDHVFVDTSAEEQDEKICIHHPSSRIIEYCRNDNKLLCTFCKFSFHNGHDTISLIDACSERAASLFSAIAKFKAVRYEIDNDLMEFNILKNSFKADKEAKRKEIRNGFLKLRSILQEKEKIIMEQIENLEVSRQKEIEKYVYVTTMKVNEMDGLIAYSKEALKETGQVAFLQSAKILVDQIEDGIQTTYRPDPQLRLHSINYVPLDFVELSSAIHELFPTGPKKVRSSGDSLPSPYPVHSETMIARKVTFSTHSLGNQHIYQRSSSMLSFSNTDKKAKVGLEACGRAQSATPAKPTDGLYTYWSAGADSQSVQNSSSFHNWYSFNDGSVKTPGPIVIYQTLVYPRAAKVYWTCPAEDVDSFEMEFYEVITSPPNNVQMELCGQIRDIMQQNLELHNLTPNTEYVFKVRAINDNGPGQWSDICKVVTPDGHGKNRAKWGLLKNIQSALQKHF

effect of a mutation on the interaction | Variant
with no effect | P183H
with no effect | P183T
with no effect | S54F

Variants of: B1
Settings: with stx4_human STX4, Q12846
stx4_human STX4, Q12846, sequence (Q12846 whole entry): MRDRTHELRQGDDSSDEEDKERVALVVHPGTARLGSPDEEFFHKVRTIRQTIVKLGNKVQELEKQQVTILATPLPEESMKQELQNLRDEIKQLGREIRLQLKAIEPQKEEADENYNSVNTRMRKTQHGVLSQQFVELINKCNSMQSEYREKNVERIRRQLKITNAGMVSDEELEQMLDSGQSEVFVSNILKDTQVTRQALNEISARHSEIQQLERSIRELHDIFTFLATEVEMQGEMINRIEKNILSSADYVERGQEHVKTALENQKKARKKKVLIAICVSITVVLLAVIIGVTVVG

effect of a mutation on the interaction | Variant
with no effect | P183H
with no effect | P183T
with no effect | S54F

Variants of: B1
Settings: with meox2_human MEOX2, P50222
meox2_human MEOX2, P50222, sequence (P50222 whole entry): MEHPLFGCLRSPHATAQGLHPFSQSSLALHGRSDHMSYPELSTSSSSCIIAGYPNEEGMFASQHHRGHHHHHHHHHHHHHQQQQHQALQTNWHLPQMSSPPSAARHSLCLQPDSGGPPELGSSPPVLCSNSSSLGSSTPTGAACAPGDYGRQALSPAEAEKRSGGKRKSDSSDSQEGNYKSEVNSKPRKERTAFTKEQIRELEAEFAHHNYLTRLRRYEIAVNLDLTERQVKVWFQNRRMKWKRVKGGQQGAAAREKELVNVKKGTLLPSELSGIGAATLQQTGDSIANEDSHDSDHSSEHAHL

effect of a mutation on the interaction | Variant
with no effect | P183H
with no effect | P183T
with no effect | S54F

Variants of: B1
Settings: with ccd33_human CCDC33, Q8N5R6
ccd33_human CCDC33, Q8N5R6, sequence (Q8N5R6 whole entry): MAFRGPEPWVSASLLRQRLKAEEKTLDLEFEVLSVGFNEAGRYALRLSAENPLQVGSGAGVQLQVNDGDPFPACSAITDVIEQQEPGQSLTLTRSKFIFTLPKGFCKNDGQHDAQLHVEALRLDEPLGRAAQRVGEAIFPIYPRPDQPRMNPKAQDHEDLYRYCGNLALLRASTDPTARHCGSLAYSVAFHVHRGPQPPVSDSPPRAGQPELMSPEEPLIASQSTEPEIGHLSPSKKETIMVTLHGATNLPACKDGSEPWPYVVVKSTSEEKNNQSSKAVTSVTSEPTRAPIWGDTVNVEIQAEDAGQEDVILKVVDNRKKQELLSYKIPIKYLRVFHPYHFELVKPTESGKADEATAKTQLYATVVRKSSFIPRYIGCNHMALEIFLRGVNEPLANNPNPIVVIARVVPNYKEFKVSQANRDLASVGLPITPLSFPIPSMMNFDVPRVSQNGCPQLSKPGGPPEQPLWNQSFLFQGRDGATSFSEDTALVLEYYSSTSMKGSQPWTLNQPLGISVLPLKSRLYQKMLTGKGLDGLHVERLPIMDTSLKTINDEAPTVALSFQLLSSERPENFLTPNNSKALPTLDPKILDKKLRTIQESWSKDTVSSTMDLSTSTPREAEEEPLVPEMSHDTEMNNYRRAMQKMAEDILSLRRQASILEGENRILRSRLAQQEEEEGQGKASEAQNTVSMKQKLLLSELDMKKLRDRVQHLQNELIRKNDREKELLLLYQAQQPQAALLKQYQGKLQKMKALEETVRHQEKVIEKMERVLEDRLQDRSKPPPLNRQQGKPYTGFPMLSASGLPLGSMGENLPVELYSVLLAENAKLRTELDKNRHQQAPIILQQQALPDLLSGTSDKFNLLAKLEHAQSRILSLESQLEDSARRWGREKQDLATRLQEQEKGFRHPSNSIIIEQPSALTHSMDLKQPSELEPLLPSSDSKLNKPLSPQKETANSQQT

effect of a mutation on the interaction | Variant
with no effect | P183H
with no effect | P183T
with no effect | S54F

Variants of: B2
Settings: with CPSF7, Q8N684-3

effect of a mutation on the interaction | Variant
with no effect | I170V
with no effect | N197I

Variants of: B3
Settings: with nck2_human NCK2, O43639
nck2_human NCK2, O43639, sequence (O43639 whole entry): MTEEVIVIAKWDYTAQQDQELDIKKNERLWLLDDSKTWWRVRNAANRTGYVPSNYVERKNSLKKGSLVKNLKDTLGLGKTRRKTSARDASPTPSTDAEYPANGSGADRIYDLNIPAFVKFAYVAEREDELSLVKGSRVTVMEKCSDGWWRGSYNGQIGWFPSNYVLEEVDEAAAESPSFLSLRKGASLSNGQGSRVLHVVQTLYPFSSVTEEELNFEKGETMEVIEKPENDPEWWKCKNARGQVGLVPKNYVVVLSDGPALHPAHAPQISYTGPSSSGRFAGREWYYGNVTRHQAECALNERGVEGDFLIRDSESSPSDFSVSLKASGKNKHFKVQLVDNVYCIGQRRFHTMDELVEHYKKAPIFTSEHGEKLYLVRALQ

effect of a mutation on the interaction | Variant
with no effect | G228S
with no effect | P252Q
with no effect | A223V
with no effect | L20F

Variants of: B4
Settings: with PSD4, Q8NDX1-2

effect of a mutation on the interaction | Variant
with no effect | R238W

Variants of: B5
Settings: with kpra_human PRPSAP1, Q14558

effect of a mutation on the interaction | Variant
with no effect | D183H
with no effect | D52H
with no effect | N114S

Variants of: B6
Settings: with pygb_human PYGB

effect of a mutation on the interaction | Variant
with no effect | N377K

From IntAct's records for PubMed 25910212
